The target of this assay is HLA-A*02:01 (Homo sapiens, UniProt P04439, D140Y/D185E/D98H/E176V/E277Q/G131W/G231S/I119V/I121R/I166T/I218V/L300P/L318F/N151K/N90K/P208A/P217A/Q86G/Q94H/R138H/R169H/T345S). Nature of the assay: MHC binding assay (UV-ligand exchange, beta2m ELISA). The settings on record: binding to HLA-A*02:01 ranged by peptide exchange yield (UV-ligand exchange, β2m ELISA). Summed up:
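Stabilised complexes were quantified via their β2m light chain: 100-fold-diluted monomers bound to streptavidin plates, then HRP anti-β2m at 2 ug/ml for 1 h at 37° C., TMB read at 450 nm. The value is the yield of UV-induced exchange of a photocleavable peptide for the candidate.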
A general note: In an ELISA, binding on a coated surface is turned into a signal by an enzyme label.
With “497 (GLLEKLTAI; listed as Homo sapiens) [compound 497]”, the Peptide exchange result is given as ““+++” (≥50 = +++)”.
For the substance “498 (KLWTGGLDNTV; listed as Homo sapiens) [compound 498]”, the Peptide exchange entry is ““+++” (≥50 = +++)”.
For “500 (SLMEDQVLQL; listed as Homo sapiens) [compound 500]” the value was ““+++” (≥50 = +++)”.
The entry for “501 (LLDPNVKSIFV; listed as Homo sapiens) [compound 501]” is ““+++” (≥50 = +++)”.
For “502 (RLLAQVPGL; listed as Homo sapiens) [compound 502]” the value was ““+++” (≥50 = +++)”; for “503 (SLNHFTHSV; listed as Homo sapiens) [compound 503]”, ““+++” (≥50 = +++)”.
On to “504 (GLSDGNPSL; listed as Homo sapiens) [compound 504]”, for which the Peptide exchange entry was ““++” (≥20% = ++)”.
The entry for “505 (SLAPGDVVRQV; listed as Homo sapiens) [compound 505]” is ““++” (≥20% = ++)”; for “506 (KLLGKVETA; listed as Homo sapiens) [compound 506]” it is ““+++” (≥50 = +++)”.
On to “507 (KLIDDQDISISL; listed as Homo sapiens) [compound 507]”, for which the Peptide exchange entry was ““+++” (≥50 = +++)”.
“508 (ILAQEQLVVGV; listed as Homo sapiens) [compound 508]”: the Peptide exchange entry was ““+++” (≥50 = +++)”.
As to “509 (FLFDTKPLIV; listed as Homo sapiens) [compound 509]”, the Peptide exchange entry is ““+++” (≥50 = +++)”.
With “510 (KLYSVVSQL; listed as Homo sapiens) [compound 510]”, the Peptide exchange result was ““++” (≥20% = ++)”.
For “512 (SLSEIVPCL; listed as Homo sapiens) [compound 512]” the value was ““+++” (≥50 = +++)”.
For “513 (SLWPSPEQL; listed as Homo sapiens) [compound 513]” the value was ““++” (≥20% = ++)”.
The entry for “514 (ILVDWLVQV; listed as Homo sapiens) [compound 514]” is ““+++” (≥50 = +++)”; for “515 (LLQELVLFL; listed as Homo sapiens) [compound 515]” it is ““+++” (≥50 = +++)”.
On to “516 (AVGPASILKEV; listed as Homo sapiens) [compound 516]”, for which the Peptide exchange result is recorded as ““++” (≥20% = ++)”.
The entry for “517 (LLMPIPEGLTL; listed as Homo sapiens) [compound 517]” is ““+++” (≥50 = +++)”.
The entry for “518 (KLNAEVACV; listed as Homo sapiens) [compound 518]” is ““+++” (≥50 = +++)”; for “519 (GLLHLTLLL; listed as Homo sapiens) [compound 519]” it is ““+++” (≥50 = +++)”; for “520 (LAVHPSGVAL; listed as Homo sapiens) [compound 520]” it is ““+” (≥10% = +)”.
Take “521 (MLLTKLPTI; listed as Homo sapiens) [compound 521]”: the Peptide exchange entry is on record as ““+++” (≥50 = +++)”.
The entry for “522 (TLWYRSPEV; listed as Homo sapiens) [compound 522]” is ““++” (≥20% = ++)”; for “523 (YQIPRTFTL; listed as Homo sapiens) [compound 523]” it is ““++” (≥20% = ++)”; for “524 (ALIENLTHQI; listed as Homo sapiens) [compound 524]” it is ““++” (≥20% = ++)”.
As for “525 (VLLEAGEGLVTI; listed as Homo sapiens) [compound 525]”, the Peptide exchange result is reported as ““+++” (≥50 = +++)”.
For “526 (RLAEVGQYEQV; listed as Homo sapiens) [compound 526]” the value was ““++” (≥20% = ++)”; for “527 (FLLEPGNLEV; listed as Homo sapiens) [compound 527]”, ““++++” (≥75% = ++++)”.
“528 (SVAEGRALMSV; listed as Homo sapiens) [compound 528]”: the Peptide exchange result is recorded as ““+++” (≥50 = +++)”.
For “529 (LLADELITV; listed as Homo sapiens) [compound 529]” the value was ““+++” (≥50 = +++)”; for “530 (VMYADIGGMDI; listed as Homo sapiens) [compound 530]”, ““+++” (≥50 = +++)”; for “531 (YTLPIASSIRL; listed as Homo sapiens) [compound 531]”, ““+++” (≥50 = +++)”.
The entry for “537 (TLAPGEVLRSV; listed as Homo sapiens) [compound 537]” is ““+++” (≥50 = +++)”.
The entry for “538 (LLLAHIIAL; listed as Homo sapiens) [compound 538]” is ““++” (≥20% = ++)”; for “539 (ALFDAQAQV; listed as Homo sapiens) [compound 539]” it is ““+++” (≥50 = +++)”; for “541 (SMLEPVPEL; listed as Homo sapiens) [compound 541]” it is ““+++” (≥50 = +++)”.
As to “542 (RVWDISTVSSV; listed as Homo sapiens) [compound 542]”, the Peptide exchange entry is listed as ““+++” (≥50 = +++)”.
The entry for “543 (GLLPTPITQQASL; listed as Homo sapiens) [compound 543]” is ““+++” (≥50 = +++)”.
For “544 (LLWDVPAPSL; listed as Homo sapiens) [compound 544]” the value was ““+++” (≥50 = +++)”; for “545 (LLADLLHNV; listed as Homo sapiens) [compound 545]”, ““+++” (≥50 = +++)”.
For “546 (VMIAGKVAVV; listed as Homo sapiens) [compound 546]” the value was ““+++” (≥50 = +++)”.
Turning to “547 (TLDITPHTV; listed as Homo sapiens) [compound 547]”, the Peptide exchange entry was ““+++” (≥50 = +++)”.
For the substance “548 (ALWENPESGEL; listed as Homo sapiens) [compound 548]”, the Peptide exchange entry was ““++” (≥20% = ++)”.
The entry for “549 (AMLENASDIKL; listed as Homo sapiens) [compound 549]” is ““+++” (≥50 = +++)”.
The entry for “550 (FLYDEIEAEVNL; listed as Homo sapiens) [compound 550]” is ““+++” (≥50 = +++)”; for “551 (KLYESLLPFA; listed as Homo sapiens) [compound 551]” it is ““+++” (≥50 = +++)”; for “552 (GLLDLPFRVGV; listed as Homo sapiens) [compound 552]” it is ““++++” (≥75% = ++++)”.
Turning to “553 (SLLNQDLHWSL; listed as Homo sapiens) [compound 553]”, the Peptide exchange entry was ““++++” (≥75% = ++++)”.
As to “554 (LLMPSSEDLLL; listed as Homo sapiens) [compound 554]”, the Peptide exchange result is ““+++” (≥50 = +++)”.
The entry for “555 (YVLEGLKSV; listed as Homo sapiens) [compound 555]” is ““+++” (≥50 = +++)”.
The entry for “556 (FLTDLEDLTL; listed as Homo sapiens) [compound 556]” is ““+++” (≥50 = +++)”; for “557 (KLYDDMIRL; listed as Homo sapiens) [compound 557]” it is ““+++” (≥50 = +++)”; for “558 (GLLENIPRV; listed as Homo sapiens) [compound 558]” it is ““+++” (≥50 = +++)”.
For “559 (VTVPPGPSL; listed as Homo sapiens) [compound 559]” the value was ““++” (≥20% = ++)”.
With “560 (ALWDIETGQQTTT; listed as Homo sapiens) [compound 560]”, the Peptide exchange entry is recorded as ““+++” (≥50 = +++)”.
The entry for “561 (YLQLTQSEL; listed as Homo sapiens) [compound 561]” is ““+++” (≥50 = +++)”.
Turning to “562 (YLEELPEKLKL; listed as Homo sapiens) [compound 562]”, the Peptide exchange result is ““+++” (≥50 = +++)”.
The entry for “563 (WLLPYNGVTV; listed as Homo sapiens) [compound 563]” is ““+++” (≥50 = +++)”.
With “564 (TVTNAVVTV; listed as Homo sapiens) [compound 564]”, the Peptide exchange result is ““+++” (≥50 = +++)”.
The entry for “565 (ALQETPTSV; listed as Homo sapiens) [compound 565]” is ““++” (≥20% = ++)”; for “566 (VIADGGIQNV; listed as Homo sapiens) [compound 566]” it is ““++” (≥20% = ++)”; for “567 (SLLPLDDIVRV; listed as Homo sapiens) [compound 567]” it is ““+++” (≥50 = +++)”.
For the substance “568 (TLYDIAHTPGV; listed as Homo sapiens) [compound 568]”, the Peptide exchange result is listed as ““++++” (≥75% = ++++)”.
Take “569 (KLVDRTWTL; listed as Homo sapiens) [compound 569]”: the Peptide exchange entry is listed as ““+++” (≥50 = +++)”.
For “570 (ALANQIPTV; listed as Homo sapiens) [compound 570]” the value was ““++” (≥20% = ++)”; for “571 (LLLTTIPQI; listed as Homo sapiens) [compound 571]”, ““+++” (≥50 = +++)”; for “572 (ALADLIEKELSV; listed as Homo sapiens) [compound 572]”, ““+++” (≥50 = +++)”.
For “573 (ILVANAIVGV; listed as Homo sapiens) [compound 573]” the value was ““+++” (≥50 = +++)”; for “574 (YLLQEPPRTV; listed as Homo sapiens) [compound 574]”, ““++” (≥20% = ++)”.

Source of the values: US10738094B2, “Peptides and combination of peptides for use in immunotherapy against ovarian cancer and other cancers” (immatics biotechnologies GmbH, priority 2015, dated 2020).
